# B1: APBB1IP (parent)
# chain: FNYSVGFKDLNESLNALEDQDLDA
# B2: RBBP5 (parent)
# chain: TGTSNTTAIKSIEFARKGSCFLIN
# Variants of: B1
# Assay: protein stability index of a GFP-peptide fusion (GPS, HEK-293T) (PSI 1-6); higher = more stable
# Conditions: c terminus: a fixed tail appended
# 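Note: lentivirally expressed fusions sorted by FACS into six bins by GFP to DsRed ratio, PSI derived from sequencing read proportions per bin multiplied by bin number.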
row,Variant,protein stability index
1,FNYSVGFKDLNESLNALEDQDLDF [A24F],3.85
2,FNYSVGFKDLNESLNALEDQDLDH [A24H],4.52
3,FNYSVGFKDLNESLNALEDQDLDD [A24D],4.68
4,FNYSVGFKDLNESLNALEDQDLDC [A24C],4.24
5,FNYSVGFKDLNESLNALEDQDLDY [A24Y],3.55
6,FNYSVGFKDLNESLNALEDQDLDR [A24R],3.83
7,FNYSVGFKDLNESLNALEDQDLDL [A24L],4.09
8,FNYSVGFKDLNESLNALEDQDLDI [A24I],4.07
9,FNYSVGFKDLNESLNALEDQDLDQ [A24Q],4.72
10,FNYSVGFKDLNESLNALEDQDLDS [A24S],4.59
11,FNYSVGFKDLNESLNALEDQDLDW [A24W],3.77
12,FNYSVGFKDLNESLNALEDQDLDK [A24K],4.81
13,FNYSVGFKDLNESLNALEDQDLDP [A24P],4.42
14,FNYSVGFKDLNESLNALEDQDLDG [A24G],3.68
15,FNYSVGFKDLNESLNALEDQDLDV [A24V],4.5
16,FNYSVGFKDLNESLNALEDQDLDM [A24M],3.85
17,FNYSVGFKDLNESLNALEDQDLDE [A24E],4.91
18,FNYSVGFKDLNESLNALEDQDLDT [A24T],4.45
19,FNYSVGFKDLNESLNALEDQDLDN [A24N],4.5
20,FNYSVGFKDLNESLNALEDQDLYA [D23Y],2.57
21,FNYSVGFKDLNESLNALEDQDLVA [D23V],3.18
22,FNYSVGFKDLNESLNALEDQDLWA [D23W],1.81

# Variants of: B2
# Assay: as above
# Conditions: c terminus: a fixed tail appended
row,Variant,protein stability index
1,TGTSNTTAIKSIEFARKGSMFLIN [C20M],2.01
2,TGTSNTTAIKSIEFARKGSAFLIN [C20A],2.6
3,TGTSNTTAIKSIEFARKGSFFLIN [C20F],1.9
4,TGTSNTTAIKSIEFARKGSRFLIN [C20R],2.55
5,TGTRNTTAIKSIEFARKGSCFLIN [S4R],1.91
6,TGTTNTTAIKSIEFARKGSCFLIN [S4T],1.95
7,TGTMNTTAIKSIEFARKGSCFLIN [S4M],2.21
8,TGTPNTTAIKSIEFARKGSCFLIN [S4P],2.01
9,TGTANTTAIKSIEFARKGSCFLIN [S4A],2.29
10,TGTENTTAIKSIEFARKGSCFLIN [S4E],2.35
11,TGTQNTTAIKSIEFARKGSCFLIN [S4Q],2.54
12,TGTVNTTAIKSIEFARKGSCFLIN [S4V],2.09
13,TGTHNTTAIKSIEFARKGSCFLIN [S4H],2.3
14,TGTSNTTAIKSIEFARKGSCFIIN [L22I],2.55
15,TGTSNTTAIKSIEFARKGSCFTIN [L22T],3.09
16,TGTSNTTAIKSIEFARKGSCFCIN [L22C],2.79
17,TGTSNTTAIKSIEFARKGSCFPIN [L22P],3.53
18,TGTSNTTAIKSIEFARKGSCFHIN [L22H],2.52
19,TGTSNTTAIKSIEFARKGSCFGIN [L22G],3.03
20,TGTSNTTAIKSIEFARKGSCFEIN [L22E],3.31
21,TGTSNTTAIKSIEFARKGSCFDIN [L22D],3.15
22,TDTSNTTAIKSIEFARKGSCFLIN [G2D],2.62
23,TNTSNTTAIKSIEFARKGSCFLIN [G2N],2.29
24,TWTSNTTAIKSIEFARKGSCFLIN [G2W],2.51

row,Variant,protein stability index
1,TVTSNTTAIKSIEFARKGSCFLIN [G2V],2.44
2,THTSNTTAIKSIEFARKGSCFLIN [G2H],2.03
3,TSTSNTTAIKSIEFARKGSCFLIN [G2S],2.11
4,TETSNTTAIKSIEFARKGSCFLIN [G2E],2.75
5,TATSNTTAIKSIEFARKGSCFLIN [G2A],2.02
6,TGTSNTTAIKSIEFARKGPCFLIN [S19P],2.04
7,TGTSNTTAIKSIEFARKGWCFLIN [S19W],1.94
8,TGTSNTTAIKSIEFARKGLCFLIN [S19L],2.56
9,TGTSNTTAIKSIEFARKGVCFLIN [S19V],2.25
10,TGTSNTTAIKSIEFARKGKCFLIN [S19K],2.92
11,TGTSNTTAIKSIEFARKGRCFLIN [S19R],2.24
12,TGTSNTTASKSIEFARKGSCFLIN [I9S],2.12
13,TGTSNTTAKKSIEFARKGSCFLIN [I9K],2.47
14,TGTSNTTAYKSIEFARKGSCFLIN [I9Y],1.88
15,TGTSNTTAMKSIEFARKGSCFLIN [I9M],2.67
16,TGTSNTTAQKSIEFARKGSCFLIN [I9Q],2.62
17,TGTSNTTAHKSIEFARKGSCFLIN [I9H],2.35
18,TGTSNTTAGKSIEFARKGSCFLIN [I9G],2.37
19,TGTSNTTAIKSIEFAAKGSCFLIN [R16A],1.89
20,TGTSNTTAIKSIEFACKGSCFLIN [R16C],1.77
21,TGTSNTTAIKSIEFAHKGSCFLIN [R16H],2.15
22,TGTSNTTAIKSINFARKGSCFLIN [E13N],1.75
23,TGTSNTTAIKSIKFARKGSCFLIN [E13K],2.19
24,TGTSNTTAIKSIRFARKGSCFLIN [E13R],1.72

row,Variant,protein stability index
1,TGTSNTTAIKSICFARKGSCFLIN [E13C],1.97
2,TGTSNTTAIKSIVFARKGSCFLIN [E13V],1.54
3,TGTSNTTAIKSIFFARKGSCFLIN [E13F],2.75
4,TGTSNTTAIKSIQFARKGSCFLIN [E13Q],1.67
5,TGTSNTTAIKSISFARKGSCFLIN [E13S],2.38
6,TGTSNTTAIKSIPFARKGSCFLIN [E13P],1.75
7,TGTSNTCAIKSIEFARKGSCFLIN [T7C],1.26
8,TGTSNTGAIKSIEFARKGSCFLIN [T7G],2.56
9,TGTSNTPAIKSIEFARKGSCFLIN [T7P],2.74
10,TGTSNTRAIKSIEFARKGSCFLIN [T7R],2.15
11,TGTSNTTAIKSIEFERKGSCFLIN [A15E],2.44
12,TGTSNTTAIKSIEFYRKGSCFLIN [A15Y],1.74
13,TGTSNTTAIKSIEFCRKGSCFLIN [A15C],1.89
14,TGTSNTTAIKSIEFLRKGSCFLIN [A15L],2.58
15,TGTSNTTAIKSIEFMRKGSCFLIN [A15M],1.94
16,TGTSNTTAIKAIEFARKGSCFLIN [S11A],2.18
17,TGTSNTTAIKLIEFARKGSCFLIN [S11L],2.5
18,TGTSNTTAIKVIEFARKGSCFLIN [S11V],2.48
19,TGTSNTTAIKRIEFARKGSCFLIN [S11R],2.12
20,TGTSNTTAIKWIEFARKGSCFLIN [S11W],2.77
21,TGTSNTTAIKKIEFARKGSCFLIN [S11K],2.13
22,TGTSNTTAIKHIEFARKGSCFLIN [S11H],3.02
23,TGTSNTTAIKEIEFARKGSCFLIN [S11E],2.23
24,TGTSNTTAIKIIEFARKGSCFLIN [S11I],3.31

# — the supplement of paper PMC10567573
